In patent US20250215091A1, “Anti-GAL3 Antibodies and Compositions” (Les Laboratoires Servier, priority 2022, published 2025):

Assays:
rat model of ARDS [1] = test: Rat ARDS model (LPS challenge): total BALF protein (BCA assay); type: in vivo; conditions: antibodies 14 mg/kg x3 prior to LPS; dexamethasone 10 mg/kg oral; vs LPS group; FIG. 17
Outline: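 Rats dosed with antibody at 14 mg/kg (in sterile PBS) or PBS on days −11, −6 and −1, then LPS 0.25 mg/kg s.c. on day 1; dexamethasone 10 mg/kg oral 2 h before LPS as reference. Total protein in BALF quantified by BCA assay, compared with the LPS + PBS group.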

rat model of ARDS [2] = test: Rat ARDS model (LPS challenge): neutrophils counts in BALF; type: in vivo; conditions: antibodies 14 mg/kg x3 prior to LPS; dexamethasone 10 mg/kg oral; vs LPS group; FIG. 16
Outline: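 Rats dosed with antibody 14 mg/kg or PBS on days −11, −6 and −1, then LPS 0.25 mg/kg subcutaneously on day 1; reference group got oral dexamethasone 10 mg/kg 2 h before LPS. Neutrophils counted in bronchoalveolar lavage fluid.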

plasma IL-5 = test: HOCI-induced murine fibrosis model: plasma IL-5 (MSD); type: in vivo, mice; conditions: first experiment, day 42; vs HOCI group; FIG. 9
Experimental: (§1) In a first experiment, control mice (n=12) received a daily intradermal injection of 300 μL of sterile phosphate buffer saline (PBS) for 5 consecutive days per week, for a duration of 42 days. HOCI alone and HOCI with antibody (HOCI-antibody) treated mice (n=12 per group) received a daily intradermal injection of 300 μL of HOCI for 5 consecutive days per week, for a duration of 42 days. Antibody-treated mice also received a subcutaneous injection of 20 mg/kg antibody, starting at day minus one and every 5 days between day 5 and day 40. Each antibody was solubilized in sterile, endotoxin-free PBS before injection. In a second experiment, the same protocol was applied, except that duration of the study was 63 days and antibodies were given every 7 days starting at day minus 1 until day 62.
(§2) Mice that received daily injection of HOCI were also treated by intratracheal instillation of 0.5 mg/kg of TD139 compound (HOCI-TD139), a small molecule Gal3 inhibitor. In a first experiment, the administrations started from day 21 and the compound was given every 3 days until day 39. In a second experiment, the administrations started from day 20 and the compound was given every 3 days until day 62. TD139 was initially dissolved in 100% DMSO then diluted 50-fold in endotoxin-free PBS before administration.
(§3) In the first experiment, a mixed effect model with repeated measurements was performed on Control group, HOCI treated group, HOCI-antibody- and HOCI-TD139-treated groups. The impact of HOCI administration on plasma IL-6 and IL-5 levels was evaluated compared to the control group. The impact of antibody and TD139 treatments was compared to the HOCI group (FIG. 9). IL-6 and IL-5 were quantified by using the MSD technology from Mesoscale.

[3] = tested on: murine model of bleomycin-induced fibrosis; test: Bleomycin-induced murine lung fibrosis model: body weight and body weight metrics; type: in vivo, mice
Experimental: Control bleomycin mice named ‘Bleo’ received an administration of 1.65 mg/kg bleomycin by the oropharyngeal route on Day 1. […] Antibody-treated mice also received an administration of 1.65 mg/kg bleomycin by the oropharyngeal route on Day 1 and a subcutaneous injection of 20 mg/kg antibody, starting on day minus one and on days 4, 8, 12, 16 and 20. Each antibody was solubilized in sterile, endotoxin-free PBS before injection. Mice that received bleomycin were also treated by oropharyngeal administration of 0.5 mg/kg of TD139 compound (Bleo-TD139), a small molecule Gal3 inhibitor, starting on day 12 and every 2 days until day 20. TD139 was initially dissolved in 100% DMSO.
Mice were weighed daily. Their growth curves are represented on FIG. 12. Control mice had normal growth with a mean percent increase of 6.4% of their initial body weight measured on day minus 1.
Body weight metrics were assessed by using two parameters called Time to weight growth (TWG) and Time to baseline (TTB), shown on FIG. 13. Time to weight growth corresponds to the point of inflection when mice show an ascending growth curve and start to regain weight within the course of the experiment. Time to baseline corresponds to the number of days required for mice to recover their initial body weight (day minus 1). The median TWG was 10 days for the untreated bleomycin group. […] TD139 compound had no efficacy on this parameter (p-value 0.53).

plasma TNF alpha = test: Rat ARDS model (LPS challenge): plasma TNF alpha (MSD); type: in vivo; conditions: 4 h following LPS challenge; vs LPS group; FIG. 18
Outline: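 Rats given anti-Gal3 antibodies (14 mg/kg in PBS) or PBS on days −11, −6 and −1, then challenged with LPS 0.25 mg/kg s.c. on day 1; dexamethasone 10 mg/kg p.o. 2 h pre-LPS as reference. Plasma sampled 4 h post-LPS; TNF alpha quantified by MSD.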

plasma Gal3 = test: HOCI-induced murine fibrosis model: plasma Gal3 (ELISA); type: in vivo, mice; conditions: first experiment, day 42; FIG. 10
Experimental: as §1, §2
In the first experiment, the plasma levels of Gal3 were measured at day minus 1 (before antibody administration) and at termination day (day 42) using a mouse Galectin-3 DuoSet ELISA kit (R&D Systems, DY1197) according to the manufacturer's instructions. Plasma samples were diluted 1:200 in order to fit with the dynamic range of the assay.

plasma IL-6 = test: HOCI-induced murine fibrosis model: plasma IL-6 (MSD); type: in vivo, mice; conditions: first experiment, day 42; vs HOCI group; FIG. 9
Experimental: as §1, §2, §3

[4] = tested on: murine model of HOCI-induced fibrosis; test: HOCI-induced murine fibrosis model: skin and lung collagen (Picrosirius red); type: in vivo, mice; conditions: first experiment
Experimental: as §1, §2
At the day of study termination of the first experiment (day 42), skin and lung samples were taken, formalin-fixed and processed to individual paraffin wax blocks. Sections of skin and lung were cut from the blocks and, after rehydration, stained with Picrosirius Red coloration according to the manufacturer's protocol. Subsequently, each slide was examined and remotely analyzed employing the web-based Image J software

[5] = bleomycin 1.65 mg/kg, antibody 20 mg/kg s.c.

B1: E07: anti-Gal3 monoclonal antibody, IgG1 format; VH SEQ ID NO 42, VL SEQ ID NO 43 (antibody, V domains shown)
VH: EVQLVESGGSLVKPGGSLRLSCAASGFTFSNYNMNWVRQAPGKGLEWISNIYGSSRYIYYADFVKGRFTISRDNAKNSLYLQMNSLRAEDTAVYYCVRSYYGGMDVWGRGTLVTVSS
VL: QSVLTQPASVSGSPGQSITISCAGTSSDVGGYYSVSWYQQHPGKAPKLMIYYDSNRPSGVSNRFSGSKSGNTASLTISGLQAEDEADYYCSSYTGYSTRVFGGGTKLEIK
total BALF protein (rat model of ARDS [1]): also decreased with a statistic significance | neutrophils counts in BALF (rat model of ARDS [2]): also decreased | plasma IL-5 levels (plasma IL-5): decreased significantly | body weight status on day 21 [3, 5]: full weight recovery | day from which body weight reached values close to those of control mice [3, 5]: 18 days | recovery of body weight ([3]; bleomycin 1.65 mg/kg, antibody 20 mg/kg s.c., FIG. 12): more rapid recovery of body weight | reduction of median Time to weight growth (TWG) ([3]; median TWG 10 days for untreated bleomycin group, FIG. 13): 2 days | TNF alpha plasma levels (plasma TNF alpha): also decreased, displaying an intermediary profile | plasma Gal3 levels (plasma Gal3): restored the plasma Gal3 levels to values similar to those of the control group | plasma IL-6 levels (plasma IL-6): significantly decreased the plasma IL-6 levels to values similar to those of control mice | lung collagen levels ([4]; day 42, FIG. 8A): restored lung collagen levels to those of control mice, reaching statistical significance | skin collagen levels ([4]; day 42, vs HOCI group, FIG. 8B): non significant downward trend
